Measurements: patent US20060257938A1, “Method of screening for drugs that block ligand binding to a lipid binding protein” (priority 2005, published 2006)
Where “and” joins values, the source holds several entries; their conditions need not be identical. Identical values can stand only once.

B1: 60N, 72A (protein, listed as Rattus norvegicus)
chain: AFDGTWKVDRNENYEKFMEKMGINVVKRKLGAHDNLKLTITQEGNKFTVKESSNFRNIDNVFELGVDFAYSAADGTELTGTWTMEGNKLVGKFKRVDNGKELIAVREISGNELIQTYTYEGVEAKRIFKKE
modifications: PEPTIDE (1)...(131) wild-type rat intestinal fatty acid binding protein
B2: 60P, 72A (protein, listed as Rattus norvegicus)
chain: AFDGTWKVDRNENYEKFMEKMGINVVKRKLGAHDNLKLTITQEGNKFTVKESSNFRNIDPVFELGVDFAYSAADGTELTGTWTMEGNKLVGKFKRVDNGKELIAVREISGNELIQTYTYEGVEAKRIFKKE
modifications: PEPTIDE (1)...(131) wild-type rat intestinal fatty acid binding protein
B3: 62C, 72A (protein, listed as Rattus norvegicus)
chain: AFDGTWKVDRNENYEKFMEKMGINVVKRKLGAHDNLKLTITQEGNKFTVKESSNFRNIDVVCELGVDFAYSAADGTELTGTWTMEGNKLVGKFKRVDNGKELIAVREISGNELIQTYTYEGVEAKRIFKKE
modifications: PEPTIDE (1)...(131) wild-type rat intestinal fatty acid binding protein
B4: 60T, 72A (protein, listed as Rattus norvegicus)
chain: AFDGTWKVDRNENYEKFMEKMGINVVKRKLGAHDNLKLTITQEGNKFTVKESSNFRNIDTVFELGVDFAYSAADGTELTGTWTMEGNKLVGKFKRVDNGKELIAVREISGNELIQTYTYEGVEAKRIFKKE
modifications: PEPTIDE (1)...(131) wild-type rat intestinal fatty acid binding protein
B5: 62A, 72A (protein, listed as Rattus norvegicus)
chain: AFDGTWKVDRNENYEKFMEKMGINVVKRKLGAHDNLKLTITQEGNKFTVKESSNFRNIDVVAELGVDFAYSAADGTELTGTWTMEGNKLVGKFKRVDNGKELIAVREISGNELIQTYTYEGVEAKRIFKKE
modifications: PEPTIDE (1)...(131) wild-type rat intestinal fatty acid binding protein
B6: 60W, 72A (protein, listed as Rattus norvegicus)
chain: AFDGTWKVDRNENYEKFMEKMGINVVKRKLGAHDNLKLTITQEGNKFTVKESSNFRNIDWVFELGVDFAYSAADGTELTGTWTMEGNKLVGKFKRVDNGKELIAVREISGNELIQTYTYEGVEAKRIFKKE
modifications: PEPTIDE (1)...(131) wild-type rat intestinal fatty acid binding protein
B7: 60Q, 72A (protein, listed as Rattus norvegicus)
chain: AFDGTWKVDRNENYEKFMEKMGINVVKRKLGAHDNLKLTITQEGNKFTVKESSNFRNIDQVFELGVDFAYSAADGTELTGTWTMEGNKLVGKFKRVDNGKELIAVREISGNELIQTYTYEGVEAKRIFKKE
modifications: PEPTIDE (1)...(131) wild-type rat intestinal fatty acid binding protein
B8: 60R, 72A (protein, listed as Rattus norvegicus)
chain: AFDGTWKVDRNENYEKFMEKMGINVVKRKLGAHDNLKLTITQEGNKFTVKESSNFRNIDRVFELGVDFAYSAADGTELTGTWTMEGNKLVGKFKRVDNGKELIAVREISGNELIQTYTYEGVEAKRIFKKE
modifications: PEPTIDE (1)...(131) wild-type rat intestinal fatty acid binding protein
B9: 62E, 72A (protein, listed as Rattus norvegicus)
chain: AFDGTWKVDRNENYEKFMEKMGINVVKRKLGAHDNLKLTITQEGNKFTVKESSNFRNIDVVEELGVDFAYSAADGTELTGTWTMEGNKLVGKFKRVDNGKELIAVREISGNELIQTYTYEGVEAKRIFKKE
modifications: PEPTIDE (1)...(131) wild-type rat intestinal fatty acid binding protein
B10: 62D, 72A (protein, listed as Rattus norvegicus)
chain: AFDGTWKVDRNENYEKFMEKMGINVVKRKLGAHDNLKLTITQEGNKFTVKESSNFRNIDVVDELGVDFAYSAADGTELTGTWTMEGNKLVGKFKRVDNGKELIAVREISGNELIQTYTYEGVEAKRIFKKE
modifications: PEPTIDE (1)...(131) wild-type rat intestinal fatty acid binding protein
B11: 60S, 72A (protein, listed as Rattus norvegicus)
chain: AFDGTWKVDRNENYEKFMEKMGINVVKRKLGAHDNLKLTITQEGNKFTVKESSNFRNIDSVFELGVDFAYSAADGTELTGTWTMEGNKLVGKFKRVDNGKELIAVREISGNELIQTYTYEGVEAKRIFKKE
modifications: PEPTIDE (1)...(131) wild-type rat intestinal fatty acid binding protein

Key:
Format in all cases: binding
Conditions in all cases: response relative to ADIFAB2
[1] = Probe fluorescence ratio response to linolenic acid relative to ADIFAB2
Summary of the method: (§1)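 Each fatty acid's response was expressed relative to ADIFAB2, the rI-FABP-L72A probe, as ΔR/ΔRreference. ΔR is the change in the background-corrected two-wavelength intensity ratio R=Fλ1/Fλ2 from its analyte-free baseline R0. Emission was read near about 420-480 nm for unbound and about 495-580 nm for FFA-bound probe.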

[2] = Probe fluorescence ratio response to palmitic acid relative to ADIFAB2
Summary of the method: as §1

[3] = Probe fluorescence ratio response to arachidonic acid relative to ADIFAB2
Summary of the method: as §1

[4] = Probe fluorescence ratio response to oleic acid relative to ADIFAB2
Summary of the method: as §1

[5] = Probe fluorescence ratio response to linoleic acid relative to ADIFAB2
Summary of the method: as §1

Molecule	DR/DR LNA [1]	DR/DR PA [2]	DR/DR AA ([3]; Arachidonic acid)	DR/DR OA [4]	DR/DR LA [5]	DR/DR AA ([3]; arachidonic acid)
B1	1.59	1.30	1.24	1.54	1.57	–
B2	0.77	0.37	0.62	0.81	0.81	–
B3	1.31	1.18	1.30	1.29	1.31	–
B4	1.73	1.49	1.72	1.76	1.73	–
B5	1.08	0.57	1.08	0.86	0.96	–
B6	0.74 and 0.739	0.59 and 0.595	0.67	0.76 and 0.763	0.84 and 0.837	0.670
B7	0.42	0.35	0.36	0.41	0.41	–
B8	0.14	0.08	0.14	0.13	0.12	–
B9	1.52	1.40	1.48	1.52	1.49	–
B10	1.58 and 1.576	1.39 and 1.385	1.49	1.57 and 1.574	1.60 and 1.598	1.485
B11	0.71	0.59	0.56	0.67	0.72	–
